According to patent US20200199241A1 (Chugai, published 2020):

Each binder was assayed against T1, soluble human FcRn complexed with β2-microglobulin (human, UniProt P61769 21-119, limits assumed) (assay: Biacore SPR, pH 7.0;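 note: test antibodies captured on a Protein L chip with human FcRn flowed over as analyte, KD obtained as the ratio of dissociation to association rate constants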).
T1 construct: also called hFcRn

Binder	Kd
IgG1-F891 (antibody, EU numbering; copies: 2 + 2) heavy: QVQLQESGPGLVKPSETLSLTCAVSGHSISHDHAWSWVRQPPGEGLEWIGFISYSGITNYNPSLQGRVTISRDNSKNTLYLQMNSLRAEDTAVYYCARSLARTTAMDYWGEGTLVTVSSASTKGPSVFPLAPSSKSTSGGTAALGCLVKDYFPEPVTVSWNSGALTSGVHTFPAVLQSSGLYSLSSVVTVPSSSLGTQTYICNVNHKPSNTKVDKKVEPKSCDKTHTCPPCPAPELLGGPSVFLFPPKPKDTLYISRTPEVTCVVVDVSHEDPEVKFNWYVDGVEVHNAKTKPREEQYNSTYRVVSVLTVLHQDWLNGKEYKCKVSNKALPAPIEKTISKAKGQPREPQVYTLPPSRDELTKNQVSLTCLVKGFYPSDIAVEWESNGQPENNYKTTPPVLDSDGSFFLYSKLTVDKSRWQQGNVFSCSVMHEALHYHWTQKSLSLSP light: not shown	170 nM
IgG1-F889 (antibody, EU numbering; copies: 2 + 2) heavy: QVQLQESGPGLVKPSETLSLTCAVSGHSISHDHAWSWVRQPPGEGLEWIGFISYSGITNYNPSLQGRVTISRDNSKNTLYLQMNSLRAEDTAVYYCARSLARTTAMDYWGEGTLVTVSSASTKGPSVFPLAPSSKSTSGGTAALGCLVKDYFPEPVTVSWNSGALTSGVHTFPAVLQSSGLYSLSSVVTVPSSSLGTQTYICNVNHKPSNTKVDKKVEPKSCDKTHTCPPCPAPELLGGPSVFLFPPKPKDTLYISRTPEVTCVVVDVSHEDPEVKFNWYVDGVEVHNAKTKPREEQYNSTYRVVSVLTVLHQDWLNGKEYKCKVSNKALPAPIEKTISKAKGQPREPQVYTLPPSRDELTKNQVSLTCLVKGFYPSDIAVEWESNGQPENNYKTTPPVLDSDGSFFLYSKLTVDKSRWQQGNVFSCSVMHEALHYHTTQKSLSLSP light: not shown	220 nM
IgG1-F888 (antibody, EU numbering; copies: 2 + 2) heavy: QVQLQESGPGLVKPSETLSLTCAVSGHSISHDHAWSWVRQPPGEGLEWIGFISYSGITNYNPSLQGRVTISRDNSKNTLYLQMNSLRAEDTAVYYCARSLARTTAMDYWGEGTLVTVSSASTKGPSVFPLAPSSKSTSGGTAALGCLVKDYFPEPVTVSWNSGALTSGVHTFPAVLQSSGLYSLSSVVTVPSSSLGTQTYICNVNHKPSNTKVDKKVEPKSCDKTHTCPPCPAPELLGGPSVFLFPPKPKDTLYISRTPEVTCVVVDVSHEDPEVKFNWYVDGVEVHNAKTKPREEQYNSTYRVVSVLTVLHQDWLNGKEYKCKVSNKALPAPIEKTISKAKGQPREPQVYTLPPSRDELTKNQVSLTCLVKGFYPSDIAVEWESNGQPENNYKTTPPVLDSDGSFFLYSKLTVDKSRWQQGNVFSCSVMHEALHYHSTQKSLSLSP light: not shown	480 nM

Continued, values first:

Kd	Binder
400 nM	IgG1-F884 (antibody, EU numbering; copies: 2 + 2) heavy: QVQLQESGPGLVKPSETLSLTCAVSGHSISHDHAWSWVRQPPGEGLEWIGFISYSGITNYNPSLQGRVTISRDNSKNTLYLQMNSLRAEDTAVYYCARSLARTTAMDYWGEGTLVTVSSASTKGPSVFPLAPSSKSTSGGTAALGCLVKDYFPEPVTVSWNSGALTSGVHTFPAVLQSSGLYSLSSVVTVPSSSLGTQTYICNVNHKPSNTKVDKKVEPKSCDKTHTCPPCPAPELLGGPSVFLFPPKPKDTLYISRTPEVTCVVVDVSHEDPEVKFNWYVDGVEVHNAKTKPREEQYNSTYRVVSVLTVLHQDWLNGKEYKCKVSNKALPAPIEKTISKAKGQPREPQVYTLPPSRDELTKNQVSLTCLVKGFYPSDIAVEWESNGQPENNYKTTPPVLDSDGSFFLYSKLTVDKSRWQQGNVFSCSVMHEALHYHNTQKSLSLSP light: not shown
71 nM	IgG1-F892 (antibody, EU numbering; copies: 2 + 2) heavy: QVQLQESGPGLVKPSETLSLTCAVSGHSISHDHAWSWVRQPPGEGLEWIGFISYSGITNYNPSLQGRVTISRDNSKNTLYLQMNSLRAEDTAVYYCARSLARTTAMDYWGEGTLVTVSSASTKGPSVFPLAPSSKSTSGGTAALGCLVKDYFPEPVTVSWNSGALTSGVHTFPAVLQSSGLYSLSSVVTVPSSSLGTQTYICNVNHKPSNTKVDKKVEPKSCDKTHTCPPCPAPELLGGPSVFLFPPKPKDTLYITRTPEVTCVVVDVSHEDPEVKFNWYVDGVEVHNAKTKPREEQYNSTYRVVSVLTVLHQDWLNGKEYKCKVSNKALPAPIEKTISKAKGQPREPQVYTLPPSRDELTKNQVSLTCLVKGFYPSDIAVEWESNGQPENNYKTTPPVLDSDGSFFLYSKLTVDKSRWQQGNVFSCSVMHEALHYHITQKSLSLSP light: not shown
